Measurements published in patent publication US8158585B2, “Cross-β structure comprising amyloid-binding proteins and methods for detection of the cross-β structure, for modulating cross-β structures fiber formation and modulating cross-β structure-mediated toxicity” (CrossBeta Biosciences B.V., priority 2002, dated 2012).
Where no end group is shown, it is not given here.

How the values were obtained:
[1] = target: T1, tPA-mediated plasminogen activation (Homo sapiens, UniProt P00750); experiment: Plasminogen activation assay; assay type: biochemical; details: plasminogen 200 μg ml−1, tPA 200 pM, 5 μM co-factor, S-2251
T1 construct: purchased Boehringer-Ingelheim (Germany)
T1 sequence (P00750 36-562): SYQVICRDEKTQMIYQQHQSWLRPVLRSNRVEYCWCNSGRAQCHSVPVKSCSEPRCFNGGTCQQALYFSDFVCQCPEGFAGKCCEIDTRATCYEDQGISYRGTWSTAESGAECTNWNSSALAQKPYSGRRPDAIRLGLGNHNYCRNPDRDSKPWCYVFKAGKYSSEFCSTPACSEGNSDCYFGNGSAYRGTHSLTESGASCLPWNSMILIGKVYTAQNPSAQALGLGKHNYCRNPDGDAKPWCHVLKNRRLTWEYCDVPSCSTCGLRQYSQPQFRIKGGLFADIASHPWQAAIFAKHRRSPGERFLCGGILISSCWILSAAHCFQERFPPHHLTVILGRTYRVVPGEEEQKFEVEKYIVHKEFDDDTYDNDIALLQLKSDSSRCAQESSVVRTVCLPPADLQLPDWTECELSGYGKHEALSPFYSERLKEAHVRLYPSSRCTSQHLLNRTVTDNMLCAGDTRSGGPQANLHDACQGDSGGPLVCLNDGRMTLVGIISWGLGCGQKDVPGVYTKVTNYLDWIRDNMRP
Experimental: Plasminogen (200 μg ml^−1) was incubated with tPA (200 pM) in the presence or the absence of a co-factor (5 μM of either endostatin, Aβ (1-40), or one the fibrin-derived peptides 85, 86 and 87). At the indicated time intervals, samples were taken and the reaction was stopped in a buffer containing 5 mM EDTA and 150 mM εACA. After collection of the samples, a chromogenic plasmin substrate S-2251 was added and plasmin activity was determined kinetically in a spectrophotometer at 37° C.

[2] = Circular dichroism: percentage β-sheet (k2d software); assay type: physicochemical
Experimental: UV circular dichroism (CD) spectra of peptide and protein solutions ([…] in H2O) were measured on a JASCO J-810 CD spectropolarimeter (Tokyo, Japan). Averaged absorption spectra of five or ten single measurements from 190-240 nm or from 190-250 nm, for fibrin peptides 85, 86, 87 or for albumin, glycated albumin and human Aβ (16-22), respectively, are recorded. The CD spectrum of Aβ (16-22) was measured as a positive control. Aβ (16-22) readily adopts amyloid fiber conformation with cross-β structure when incubated in H2O^45. For albumin and Aβ (16-22), relative percentage of the secondary structure elements present was estimated using k2d software.^48

[3] = target: T2, tPA (Homo sapiens, UniProt P00750); experiment: ELISA: binding of tPA to 86-week glycated albumin-AGE preparations; details: albumin incubated 86 weeks; 10 mM εACA
T2 construct: purchased Boehringer-Ingelheim (Germany)
T2 sequence (P00750 36-562): as above
Experimental: Binding of the cross-B structure marker tPA to albumin-AGE was tested using an ELISA setup. […] Therefore, we used tPA binding to these two peptides as positive control. The 86-week glycated samples and controls were coated to Greiner microlon plates (catalogue #655092, Greiner, Frickenhausen, Germany). Wells were blocked with Superblock (Pierce, Rockford, Ill., USA). All subsequent incubations were performed in PBS/0.1% (v/v) Tween 20 for one hour at room temperature while shaking, with volumes of 50 μl per well. After incubation, wells were washed five times with 300 μl PBS/0.1% (v/v) Tween 20. Increasing concentrations of tPA were added in triplicate to coated wells as well as to control wells. During tPA incubations of 86-week incubated samples, at least a 123,000 times molar excess of ε-amino caproic acid (εACA, 10 mM) was added to the solutions. εACA is a lysine analogue and is used to avoid potential binding of tPA to albumin via its kringle 2 domain.^50 Monoclonal antibody 374b (American Diagnostica, Instrumentation laboratory, Breda, The Netherlands) and, subsequently, RAMPO (Dako diagnostics, Glostrup, Denmark) was added to the wells at a concentration of 0.3 μg ml^−1. Bound peroxidase-labeled antibody was visualized using 100 μl of a solution containing 8 mg ortho-phenylene-diamine in 20 ml 50 mM citric acid/100 mM Na2HPO4 pH 5.0 with 0.0175% (v/v) H2O2. Staining was stopped upon adding 50 μl of a 2 M H2SO4 solution. Absorbance was read at 490 nm on a Vmax kinetic microplate reader (Molecular Devices, CA, USA). Background signals from non-coated control wells were substracted from corresponding coated wells.

[4] = target: T3, Aβ fibrils (Homo sapiens, UniProt P05067); experiment: Amyloid pull-down with insoluble Aβ fibers; assay type: binding; details: conditioned BHK medium
T3 construct: Peptide Aβ (1-40), containing amino acids as present in the described human Alzheimer peptide; purchased Pepscan, Inc. (The Netherlands) or peptide synthesis facility at the Netherlands Cancer Institute; host or cells: synthetic peptide
T3 sequence (P05067 672-711): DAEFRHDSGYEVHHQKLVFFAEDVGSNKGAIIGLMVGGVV
Experimental: Conditioned medium of BHK cells expressing GST-tagged tPA F, F-EGF, EGF, K1, F-EGF-K1, FXII F, HGFa F, Fn F4, Fn F5, Fn F4-5 and GST was used for amyloid binding assays. At first, constructs were adjusted to approximately equal concentration using Western blots. Qualitative binding of the recombinant fragments were evaluated using a “pull-down” assay. To this end, the recombinantly made fragments were incubated with either Aβ or IAPP fibrils. Since these peptides form insoluble fibers, unbound proteins can be easily removed from the fibers following centrifugation. The pellets containing the bound fragments were subsequently washed several times. Bound fragments were solubilized in SDS-sample buffer and analyzed by PAGE, as were unbound proteins in the supernatant fraction and starting material. The gels were analyzed using immunoblotting analysis with the anti-GST antibody Z-5.

[5] = test system: differentiated N1E-115 cells; experiment: N1E-115 cell detachment (methylene blue staining); assay type: cell-based, mouse; details: 24 hours
Experimental: FIG. 4 is a set of graphs illustrating stimulation of tPA-mediated plasmin formation by Aβ and synergistic stimulation of cell detachment by plasminogen and Aβ. Panel A depicts that plasminogen (200 μg/ml) and tPA (200 pM) were incubated with Aβ (5 μM) or control buffer. Samples were taken from the reaction mixture at the indicated periods of time and plasmin activity was measured by conversion of the chromogenic plasmin substrate S-2251 at 405 nm. […] After 48 hours, the dead cells were washed away and the remaining adherent cells were stained with methylene blue. Plasmin cannot prevent Aβ-induced cell detachment. Panel C illustrates that N1E-115 cells were differentiated and received the indicated concentrations of plasminogen in the presence or absence of 10 μM Aβ. After 24 hours, cell detachment was assessed. […] Panel D is an immunoblot analysis of plasmin formation and laminin degradation. Differentiated N1E-115 cells were treated with or without Aβ (10 μM) in the absence or presence of added plasminogen. Addition of Aβ results in the formation of plasmin (bottom panel) and in degradation of laminin (top panel).
FIG. 5 depicts graphs illustrating that carboxypeptidase B inhibits Aβ-stimulated tPA-mediated plasmin formation and cell detachment. […] Samples were taken from the reaction mixture at the indicated periods of time and plasmin activity was measured by conversion of the chromogenic plasmin substrate S-2251 at 405 nm. The reaction was performed in the absence or the presence of 50 μg ml^−1 carboxypeptidase B (CpB) and in the absence or presence of 3.5 μM carboxypeptidase inhibitor (CPI). CpB greatly attenuates A-stimulated plasmin formation. […] After 24 hours, the cells were photographed. Panel C illustrates that, subsequently, the cells were washed once with PBS and the remaining cells were quantified as percentage-adhered cells by methylene blue staining. In Panel D, the cells were treated as in Panels B and C and medium and cell fractions were collected and analyzed by Western blot using an anti-plasmin(ogen) antibody. Aβ stimulates plasmin formation that is inhibited by CpB.
N1E-115 mouse neuroblastoma cells were routinely cultured in DMEM containing 5% FCS, supplemented with antibiotics. Cells were differentiated into post-mitotic neurons.^52 The cells were exposed to Aβ (50 μg ml^−1) for 24 hours in the presence or absence of 20 μg ml^−1 plasminogen in the presence or absence of 50 μg ml^−1 CpB. Cells were photographed, counted and lysed by the addition of 4× sample buffer (250 mM Tris pH 6.8, 8% SDS, 10% glycerol, 100 mM DTT, 0.01% w/v bromophenol blue) to the medium. The lysate, containing both adherent and floating (presumably dying and/or dead) cells, as well as the culture medium, were analyzed for the presence of plasminogen and plasmin, as well as for laminin, by Western blot analysis using specific antibodies against plasminogen (MoAb 3642, American Diagnostics), laminin (PoAb L9393, Sigma).

[6] = target: T4, Aβ (Homo sapiens, UniProt P05067); experiment: Solid-phase binding ELISA of tPA, plasminogen and plasmin to coated Aβ; details: Aβ coated onto plastic 96-well plates
T4 construct: Peptide Aβ (1-40), containing amino acids as present in the described human Alzheimer peptide; purchased Pepscan, Inc. or peptide synthesis facility of the Netherlands Cancer Institute; host or cells: chemical synthesis
T4 sequence (P05067 672-711): as above
Experimental: FIG. 3 is a set of graphs depicting binding of tPA, plasminogen and plasmin to Aβ. Aβ was coated onto plastic 96-well plates. Increasing concentrations of either (A) tPA or (B) plasmin(ogen) were allowed to bind to the immobilized peptide. After extensive washing, tPA and plasmin(ogen) binding was assessed by enzyme-linked immunosorbent assays using anti-tPA and anti-plasminogen antibodies. Binding of (C) tPA and (D) plasmin to Aβ in the presence of 50 mM ε-aminocaproic acid (ε-ACA) was assessed as in A and B.
To test whether tPA, plasminogen and plasmin bind Aβ, solid-phase binding assays were performed. Aβ was coated onto plastic 96-well plates and binding of the peptide to either plasmin(ogen) or to tPA was assessed by overlaying the coated peptide with increasing concentrations of either tPA, plasminogen or plasmin. Binding was assessed using specific antibodies to either plasmin(ogen) or to tPA by performing ELISA. […] However, activated plasminogen (plasmin) does bind to Aβ and does so with a kD of 47 nM. […] To test this, use was made of the lysine analogue ε-aminocaproic acid (εACA) and binding of plasmin and tPA to Aβ was tested in its presence. […] In contrast, εACA has no effect on the tPA-Aβ interaction (FIG. 3, Panel C). Thus, it was concluded that plasmin binds to free lysines that were generated during the incubation period, presumably via its lysine-binding Kringle domain(s). In line with this, the kD of plasminogen Kringle domain binding to free lysines in fibrin is similar to the kD for plasmin binding to Aβ.

In the case of “SNNLGPVLPP (Peptide Delta mIAPP from Homo sapiens) [Δ-mIAPP]”, the “stimulation of tPA-mediated plasmin formation” value (“stimulation” below) [1] is reported as “not”.

For “Albumin control: albumin incubated with g6p or glyceraldehyde omitted [reference compound]”, the “β-sheet (%)” value ([2]; incubation time 2 weeks) was 0% and the “β-sheet (%)” value ([2]; incubation time 23 weeks) was 0%.

For “albumin-glyoxylic acid: albumin incubated 86 weeks with 500 mM glyoxylic acid/100 mM NaCNBH3”, the “binding of amyloid-specific serine protease tPA” value [3] was “No tPA binding”.

With “SNNFGAILSS (Peptide Delta hIAPP from Homo sapiens) [Δ-hIAPP]” the “stimulation” value [1] was “stimulate”.

With “KRLEVDIDIK (Peptide FP10 from Homo sapiens) [compound 87]” the “stimulation” value [1] was “does not”.

In the case of “Albumin-glyceraldehyde: glyceraldehyde-modified albumin”, the “β-sheet (%)” value ([2]; incubation time 2 weeks) is reported as 0% and the “binding of amyloid-specific serine protease tPA” value [3] is reported as “bound specifically”.

For “KCNTATCATQRLANFLVHSSNNFGAILSSTNVGSNTY (Peptide fl-hIAPP from Homo sapiens)”, the “binding of amyloid-specific serine protease tPA” value [3] was “bound specifically”, the “stimulation” value [1] was “stimulate” and the “stimulation” value ([1]; listed as IAPP) was “enhanced”.

For “KRLEVDIDIKIR (Peptide FP12 from Homo sapiens) [compound 86]”, the “stimulation” value [1] was “stimulate”.

For “EGF-GST: EGF fragment of human tPA with C-terminal GST tag (CSEPRCFNGGTCQQALYFSDFVCQCPEGFAGKCCEID-{GST}; cysteine pairing not given here)”, the “binding to Aβ fibers (pull-down, Western blot)” value (shortened to “binding to Aβ fibers”) [4] was “remain in the supernatant”.

For “plasminogen: inactive precursor of plasmin, cleaved by tPA”, the “cell adhesion in the absence of Aβ” value [5] was “no effect”, the “minimal levels required to potentiate Aβ-induced cell detachment” value [5] was 10 to 20 µg/mL and the “effect on Aβ-induced cell detachment” value ([5]; suboptimal Aβ (10 μM), low plasminogen) was “dramatic potentiating effect”. For the same molecule, the “binding to Aβ” value [6] was “No detectable binding”.

With “Aβ (16-22): human Aβ fragment, positive control that adopts amyloid fiber conformation (KLVFFAE) [reference compound]” the “β-sheet (%)” value ([2]; no incubation time given) was 100%.

In the case of “KRLEVDIDIKIRS (Peptide FP13 from Homo sapiens) [compound 85]”, the “stimulation” value [1] is reported as “stimulate”.

B1: K1-GST: K1 fragment of human tPA with C-terminal GST tag (protein)
chain: TRATCYEDQGISYRGTWSTAESGAECTNWNSSALAQKPYSGRRPDAIRLGLGNHNYCRNPDRDSKPWCYVFKAGKYSSEFCSTPACSE
modifications: left off: small tags and cut ends; a dimerising Fc or GST
notes: K1 fragment of human tPA with C-terminal GST tag
For B1, the “binding to Aβ fibers” value [4] was “remain in the supernatant”.

B2: F-EGF-K1-GST: F-EGF-K1 fragment of human tPA with C-terminal GST tag (protein)
chain: SYQVICRDEKTQMIYQQHQSWLRPVLRSNRVEYCWCNSGRAQCHSVPVKSCSEPRCFNGGTCQQALYFSDFVCQCPEGFAGKCCEIDTRATCYEDQGISYRGTWSTAESGAECTNWNSSALAQKPYSGRRPDAIRLGLGNHNYCRNPDRDSKPWCYVFKAGKYSSEFCSTPACSE
modifications: left off: small tags and cut ends; a dimerising Fc or GST
notes: F-EGF-K1 fragment of human tPA with C-terminal GST tag
In the case of B2, the “binding to Aβ fibers” value [4] is reported as “Efficient binding”.
